Molecular target: the molecule itself
Assay: SEC; HiLoad 16/600 Superdex 200-pg column, 25 mM Tris (pH 8.0), 200 mM NaCl; peak checked by reducing SDS-PAGE

B1: DpK2 (gp02), capsule depolymerase / tailspike protein of Klebsiella phage RAD2 (enzyme, UniProt P0DTN8 1-907, looked up)
chain: MALYREGKAAMAADGTVTGTGTKWQSSLSLIRPGATIMFLSSPIQMAVVNKVVSDTEIKAITTSGAVVASTDYAILLSDSLTVDGLAQDVAETLRHYQSQETVIADAVEFFKSFDFDSLQNLANQIKADSESAESSAAAAAASESKAKTSEDNAKSSENAAKNSEVAAETTRDQIQQIIDNAGDQSTLVVLAQPDGFDSIGRVSSFAALRNLKPKKSGQHVLLTSYYDGWAAENKMPTGGGEFISSIGTATDDGGYIAAGPGYYWTRVVNNNSFTAEDFGCKTTATPPPNFNVLPAELFDNTAMMQAAFNLAISKSFKLNLSTGTYYFESSDTLRITGPIHIEGRPGTVFYHNPSNKANPKTDAFMNISGCSAGRISSINCFSNSYLGKGINFDRSVGDNRKLVLEHVYVDTFRWGFYVGEPECINQIEFHSCRAQSNYFQGIFIESFKEGQEYGHSAPVHFFNTICNGNGPTSFALGATYKTTKNEYIKVMDSVNDVGCQAYFQGLSNVQYIGGQLSGHGSPRNTSLATITQCNSFIIYGTDLEDINGFTTDGTAITADNIDAIESNYLKDISGAAIVVSSCPGFKIDSPHIFKIKTLSTIKLMNNTYNYEIGGFTPDEALKYNVWDANGLATNRISGVIHPRLVNSRLGINSVAFDNMSNKLDVSSLIHNETSQIVGLTPSTGSNVPHTRKMWSNGAMYSSTDLNNGFRLNYLSNHNEPLTPMHLYNEFSVSEFGGSVTESNALDEIKYIFIQTTYANSGDGRFIIQALDASGSVLSSNWYSPQSFNSTFPISGFVRFDVPTGAKKIRYGFVNSANYTGSLRSHFMSGFAYNKRFFLKIYAVYNDLGRYGQFEPPYSVAIDRFRVGDNTTQMPSIPASSATDVAGVNEVINSLLASLKANGFMSS
notes: DpK2, product of gp02 of Klebsiella phage RAD2 (genome GenBank MW655991); 98 kDa; the open reading frame was cloned between NcoI and XhoI of pPROEX htb; residues 191 to 906 are modelled in the cryo-EM structure; Homotrimer; The forward primer ([residues removed]) reads M-G-A-L-Y-R-E-G-K, so the NcoI site may add a glycine after the first methionine; no removal of the His tag is described; also …
  stoichiometry N: 3
